We go through 15 molecules from patent US20250326817A1 (LA JOLLA INSTITUTE FOR IMMUNOLOGY, published 2025).

Where a chain is given by its changes, count along the chain named. Names may count otherwise.

T1: single chain homotrimeric mouse LIGHT extracellular domain (G73-V239), N-terminal HHHHHHGG, joined by two … (mouse, UniProt Q9QYH9 73-239)
T1 construct: Soluble analyte of the Octet assay; from Expi293 cells; also called mLIGHT
T1 sequence: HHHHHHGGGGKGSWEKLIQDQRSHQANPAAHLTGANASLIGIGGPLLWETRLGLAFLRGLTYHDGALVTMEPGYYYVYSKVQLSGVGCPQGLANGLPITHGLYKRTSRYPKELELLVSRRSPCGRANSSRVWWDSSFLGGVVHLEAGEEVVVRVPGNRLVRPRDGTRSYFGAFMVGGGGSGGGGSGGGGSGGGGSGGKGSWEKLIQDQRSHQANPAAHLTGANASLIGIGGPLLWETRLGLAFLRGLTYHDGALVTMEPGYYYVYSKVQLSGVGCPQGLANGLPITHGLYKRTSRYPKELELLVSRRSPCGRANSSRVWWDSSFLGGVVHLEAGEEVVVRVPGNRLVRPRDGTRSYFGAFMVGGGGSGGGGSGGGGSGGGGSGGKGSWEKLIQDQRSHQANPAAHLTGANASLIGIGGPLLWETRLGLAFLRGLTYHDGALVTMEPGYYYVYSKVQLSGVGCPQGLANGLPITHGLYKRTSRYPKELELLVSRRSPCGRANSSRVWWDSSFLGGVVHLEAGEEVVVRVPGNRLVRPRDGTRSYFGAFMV

T2: mouse BTLA, full length, fused to EGFP, on HEK293 FreeStyle cells (mouse, UniProt Q7TSA3 30-306)
T2 construct: whole, on cells; also called mBTLA; mBTLA-EGFP; not shown: EGFP fused at the C-terminus (pEGFP-N1 vector)
T2 sequence (looked up): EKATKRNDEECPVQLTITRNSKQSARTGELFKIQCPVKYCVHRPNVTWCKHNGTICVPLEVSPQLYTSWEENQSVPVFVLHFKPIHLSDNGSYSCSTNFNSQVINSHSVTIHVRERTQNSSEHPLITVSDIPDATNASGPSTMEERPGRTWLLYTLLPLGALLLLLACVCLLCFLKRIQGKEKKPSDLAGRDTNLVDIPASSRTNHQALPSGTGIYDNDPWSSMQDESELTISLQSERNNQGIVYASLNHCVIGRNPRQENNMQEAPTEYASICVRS

T3: mouse LIGHT, full length, on transfected cells (mouse, UniProt Q9QYH9 1-239)
T3 construct: whole, on cells; also called mLIGHT; mLIGHT-IRES-EGFP
T3 sequence (looked up): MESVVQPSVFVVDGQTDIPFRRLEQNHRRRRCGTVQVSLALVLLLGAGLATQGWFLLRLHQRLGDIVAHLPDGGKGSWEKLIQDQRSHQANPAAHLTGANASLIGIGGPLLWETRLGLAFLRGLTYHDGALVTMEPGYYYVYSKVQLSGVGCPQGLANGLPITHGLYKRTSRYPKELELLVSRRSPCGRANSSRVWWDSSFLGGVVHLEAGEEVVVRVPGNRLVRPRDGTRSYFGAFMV

B1: mouse HVEM (Q39-Q206), wild type, fused to human IgG1 and a hexa-His tag (Fc fusion)
chain (part 1 of 2): QPSCRQEEFLVGDECCPMCNPGYHVKQVCSEHTGTVCAPCPPQTYTAHANGLSKCLPCGVCDPDMGLLTWQECSSWKDTVCRCIPGYFCENQDGSHCSTCLQHTTCPPGQRVEKRGTHDQDTVCADCLTGTFSLGGTQEECLPWTNCSAFQQEVRRGTNSTDTTCSSQ
chain (part 2 of 2): HHHHHH
notes: From Expi293 cells; also called mHVEM-hIgG1; mHVEMWT; not shown: human IgG1
B2: mouse CD160 residues I30-H154 with C-terminal HHHHHHGGGGSGLNDIFEAQKIEWHE, refolded from E. coli inclusion bodies (receptor)
chain: IHVTSSASQKGGRLDLTCTLWHKKDEAEGLILFWCKDNPWNCSPETNLEQLRVKRDPETDGITEKSSQLVFTIEQATPSDSGTYQCCARSQKPEIYIHGHFLSVLVTGNHTEIRQRQRSHPDFSHHHHHHHGGGGSGLNDIFEAQKIEWHE
modifications: biotin (mCD160-biotin in the cell staining assay; site not stated)
notes: range 30-154; also called mCD160; mCD160-biotin
B3: mouse HVEM (Q39-Q206) G72R-V74A fused to human IgG1 and a hexa-His tag, soluble form (Fc fusion)
chain (part 1 of 2): B1 chain (part 1 of 2) with G34R, V36A
chain (part 2 of 2): HHHHHH
notes: also called mHVEM^-BT/160; mHVEM-BT/160; not shown: human IgG1
B4: mouse BTLA, soluble protein (analyte of the Octet assay) (receptor, UniProt Q7TSA3 30-183, looked up)
chain: EKATKRNDEECPVQLTITRNSKQSARTGELFKIQCPVKYCVHRPNVTWCKHNGTICVPLEVSPQLYTSWEENQSVPVFVLHFKPIHLSDNGSYSCSTNFNSQVINSHSVTIHVRERTQNSSEHPLITVSDIPDATNASGPSTMEERPGRTWLLY
notes: The construct is not described; also called mBTLA; mBTLA-penta-His-tag
B5: G72D-V74D (receptor)
chain: QPSCRQEEFLVGDECCPMCNPGYHVKQVCSEHTDTDCAPCPPQTYTAHANGLSKCLPCGVCDPDMGLLTWQECSSWKDTVCRCIPGYFCENQDGSHCSTCLQHTTCPPGQRVEKRGTHDQDTVCADCLTGTFSLGGTQEECLPWTNCSAFQQEVRRGTNSTDTTCSSQVVYYVVSILLPLVIVGAGIAGFLICTRRHLHTSSVAKELEPFQEQQENTIRFPVTEVGFAETEEETASN
notes: on HEK293 FreeStyle cells; also called mHVEM G72D-V74D; not shown: mCherry reporter (and any vector linker) fused at the cytoplasmic C-terminus (pmCherry-N1)
B6: mouse HVEM M56D, full length, fused to mCherry, on cells (receptor)
chain: B5 chain with M18D, D34G, D36V
notes: also called mHVEM M56D; not shown: mCherry fused at the C-terminus (pmCherry-N1 vector)
B7: mouse HVEM L94D, full length, fused to mCherry, on cells (receptor)
chain: B5 chain with D34G, D36V, L56D
notes: also called mHVEM L94D; not shown: mCherry fused at the C-terminus (pmCherry-N1 vector)
B8: mouse HVEM G72R-V74A double mutein, full length, fused to mCherry, on cells (receptor)
chain: B5 chain with D34R, D36A
notes: also called mHVEM G72R-V74A; mHVEM^-BT/160; not shown: mCherry fused at the C-terminus (pmCherry-N1 vector)
B9: mouse HVEM R43D, full length, fused to mCherry, on cells (receptor)
chain: B5 chain with R5D, D34G, D36V
notes: also called mHVEM R43D; not shown: mCherry fused at the C-terminus (pmCherry-N1 vector)
B10: G72D-V74R (receptor)
chain: B5 chain with D36R
notes: on HEK293 FreeStyle cells; also called mHVEM G72D-V74R; not shown: mCherry reporter (and any vector linker) fused at the cytoplasmic C-terminus (pmCherry-N1)
B11: mouse HVEM L90A, full length, fused to mCherry, on cells (receptor)
chain: B5 chain with D34G, D36V, L52A
notes: also called mHVEM L90A; not shown: mCherry fused at the C-terminus (pmCherry-N1 vector)
B12: mouse HVEM V74D, full length, fused to mCherry, on cells (receptor)
chain: B5 chain with D34G
notes: also called mHVEM V74D; not shown: mCherry fused at the C-terminus (pmCherry-N1 vector)
B13: mouse HVEM L94A, full length, fused to mCherry, on cells (receptor)
chain: B5 chain with D34G, D36V, L56A
notes: also called mHVEM L94A; not shown: mCherry fused at the C-terminus (pmCherry-N1 vector)
B14: mouse HVEM G72D, full length, fused to mCherry, on cells (receptor)
chain: B5 chain with D36V
notes: also called mHVEM G72D; not shown: mCherry fused at the C-terminus (pmCherry-N1 vector)
B15: mouse HVEM H86D, full length, fused to mCherry, on cells (receptor)
chain: B5 chain with D34G, D36V, H48D
notes: also called mHVEM H86D; not shown: mCherry fused at the C-terminus (pmCherry-N1 vector)

For experiment [1], the target named is T1, single chain homotrimeric mouse LIGHT …. In words: Octet bio-layer interferometry, mHVEM-hIgG1 on the sensor, LIGHT in solution. From the text:
(§1) The results were exported and then analyzed using Prism 5 (GraphPad Software). Final response curves were generated after subtracting the responses of the control groups.
(BLI is a label-free optical method that tracks binding on a fibre tip over time.)

The target is the same in experiment [2]. In words: Octet bio-layer interferometry, mHVEM-hIgG1 on the sensor, mLIGHT in solution.
Source text: (§2) Error bars represent results from at least triplicates. […] Ligands BTLA, CD160 and LIGHT are modeled based on the HVEM structures and are shown as labeled surfaces.
as §1

The target in experiment [3] is B1. Kind of experiment: Octet bio-layer interferometry, mHVEM-hIgG1 on the sensor, CD160 in solution.
Source text: as §1

In experiment [4] the target is B1. Kind of experiment: Octet bio-layer interferometry, mHVEM-hIgG1 on the sensor, mCD160 in solution.
Source text: as §2, §1

The target in experiment [5] is B4. Kind of experiment: Octet bio-layer interferometry, mHVEM-hIgG1 on the sensor, mBTLA in solution.
Source text: as §2, §1

The target of experiment [6] is B2. Kind of experiment: Octet bio-layer interferometry, mHVEM-hIgG1 on the sensor, mCD160 in solution.
Source text: as §2, §1

Experiment [7] concerns the target B1. In words: Octet bio-layer interferometry, mHVEM-hIgG1 on the sensor, BTLA in solution.
Source text: as §1

For experiment [8], the target named is B1. Kind of experiment: Octet bio-layer interferometry, mHVEM-hIgG1 on the sensor, mBTLA in solution.
Source text: as §2, §1

Experiment [9] has as its target T2, mouse BTLA, full length, fused to EGFP, …. In words: cell-cell flow cytometry (mHVEM-mCherry cells + mBTLA-EGFP cells). The procedure:
(§3) After 2˜3 days, the cells were harvested and diluted to […]. […] These cells were further recorded and analyzed by flow cytometry. […] The cells were incubated for 30 min with shaking at room temperature and washed once by PBS containing 0.2% BSA (PBS-BSA). The cells were re-suspended in 100 uL of PBS-BSA and analyzed by flow cytometry.
For orientation: Flow cytometry measures light scatter and fluorescence of single cells or particles in a stream.

The target in experiment [10] is T3, mouse LIGHT, full length, on …. Kind of experiment: cell-cell flow cytometry (mHVEM-mCherry cells + mLIGHT-IRES-EGFP cells). The procedure: as §3
The target in experiment [11] is B4. In words: cell-protein flow cytometry (mHVEM-mCherry cells + mBTLA-His/anti-His green). As for the experimental part: as §3
Experiment [12] has as its target B2. In words: cell-protein flow cytometry (mHVEM-mCherry cells + mCD160-biotin/streptavidin-AF488). The procedure: as §3
Experiment [13] concerns the target T2, mouse BTLA, full length, fused to EGFP, …. Kind of experiment: flow cytometry, cell-cell interaction assay. As for the experimental part: as §3
In experiment [14] the target is T3, mouse LIGHT, full length, on …. Kind of experiment: flow cytometry, cell-cell interaction assay. As for the experimental part:
as §3

What is called Kd is the constant that tells how readily two partners part at equilibrium. Lower therefore signals higher affinity. B1: the Kd in [1] and in experiment [2] was 16.2 nM in each case.

On to B2, for which the Kd in [3] and in [4] was 11600 nM in each case.

Regarding B3, the binding result in experiment [5] and in experiment [6] was “no binding” each time. Also, the Kd in experiment [1] and in experiment [2] was 29.3 nM each time.

As for B4, the Kd in [7] and in experiment [8] was 1100 nM each time.

On to B5, for which the binding result in [9] is “no binding”; in [10], “binds”; in experiment [11], “no binding”; in experiment [12], “no binding”.

For the molecule B6, the binding result in experiment [13] and in [14] was “binds” throughout.

As for B7, in experiment [13], the binding result is given as “binds”.

In the case of B8, the binding result in experiment [9] is “no binding”; in experiment [10], “binds”; in experiment [11], “no binding”; in experiment [12], “no binding”.

Turning to B9, the binding result in [13] and in [14] was “binds” throughout.

Turning to B10, the binding result in [9] was “no binding”; in experiment [10] it was “binds”; in experiment [11] it was “no binding”; in experiment [12], “no binding”.

B11: the binding result in [13] is “binds”.

B12: the binding result in experiment [14] is given as “binds”.

In the case of B13, the binding result in [13] is reported as “binds”.

For B14, the binding result in [14] is recorded as “binds”.

B15: the binding result in experiment [13] is reported as “binds”.
